Reference: US11360100B2, “Methods and compositions useful in detecting proteins” (OREGON HEALTH & SCIENCE UNIVERSITY, priority 2016, dated 2022)

Assay: Membrane permeance of probe peptides in living cells
Assay type: cell-based
Protocol: The disclosed tag sets preferentially label cell surfaces and are membrane impermeant in living cells, which is of particular use in labeling cell-surface receptors (i.e., TfR1 and EGFR) and more particularly of use in monitoring trafficking and endocytosis.
The disclosed methods were tested in transfected human osteosarcoma cells (U-2 OS). A pDisplay vector was used to target CoilZ-EGFP and untagged EGFP to the cell surface. This construct includes a C-terminal fusion to the transmembrane domain of the platelet derived growth factor receptor. As expected, both CoilZ-EGFP and untagged EGFP localized to the cell surface, and green fluorescence was observed within 24 h of transfection. Then the cells were blocked with 6% BSA and 10% FBS for 30 minutes at 37° C. and then contacted with an AF647-conjugated CoilY probe (CoilY-AF647), 30 min at 4° C. Cells were fixed before imaging by confocal fluorescence microscopy. The probe peptides are membrane impermeant; only cell-surface EGFP was accessible to CoilY-AF647 for labeling. Colocalization of green fluorescent CoilZ-EGFP with CoilY-AF647 was observed.
VIP probe peptides are live cell impermeant. This makes them ideal for imaging and tracking receptor internalization. […]
VIPER labeling was compared to that of standard fluorescence labeling techniques, namely a fluorescent protein fusion to mCherry and antibody labeling.

## CoilR: coiled-coil peptide, SEQ ID NO: 1, designed from RR12EE345L (LEIRAAFLRQRNTALRTEVAELEQEVQRLENEVSQYETRYGPL)
  cell membrane permeance: cell-membrane impermeance
